Among the data in paper PMC10994853 are stoichiometry N values, retold here.

The target of this experiment is SkpA (Fjoh_1689) (Flavobacterium johnsoniae (endogenous)). Description: cryo-EM structure; Extended Translocon, peak I of Twin-strep–SprA complexes from a ΔgldL background (also seen at 4.3 Å from ΔgldM peak I); assembled in vivo, in LMNG.

Usually stoichiometry N stands for a count of units in the complex or per binding partner. SkpA (Fjoh_1689) (natural protein): the stoichiometry N stood at 3.
